Measured values from patent publication US20240018240A1 (Hoffmann-La Roche, published 2024).
Where a chain is given by its changes, count along the chain named.

B1: PLAP H1 CD3 P035.093 TCB (bispecific antibody, human IgG1, kappa, L234A L235A)
heavy 1: not shown
heavy 2: QVQLQESGPGLVKPSETLSLTCTVSGFSLTSYGVSWIRQPPGKGLEWIGVIWEDGSTNYHSALISRVTISVDTSKNQFSLKLSSVTAADTAVYYCARPHYGSSYVGAMEYWGAGTTVTVSSASTKGPSVFPLAPSSKSTSGGTAALGCLVEDYFPEPVTVSWNSGALTSGVHTFPAVLQSSGLYSLSSVVTVPSSSLGTQTYICNVNHKPSNTKVDEKVEPKSCDKTHTCPPCPAPEAAGGPSVFLFPPKPKDTLMISRTPEVTCVVVDVSHEDPEVKFNWYVDGVEVHNAKTKPREEQYNSTYRVVSVLTVLHQDWLNGKEYKCKVSNKALGAPIEKTISKAKGQPREPQVCTLPPSRDELTKNQVSLSCAVKGFYPSDIAVEWESNGQPENNYKTTPPVLDSDGSFFLVSKLTVDKSRWQQGNVFSCSVMHEALHNHYTQKSLSLSP
light 1: DIQMTQSPSSLSASVGDRVTITCRASENIYSYVAWYQQKPGKAPKLLIYNAKSLASGVPSRFSGSGSGTDFTLTISSLQPEDFATYYCQHHYVSPWTFGGGTKLEIKRTVAAPSVFIFPPSDRKLKSGTASVVCLLNNFYPREAKVQWKVDNALQSGNSQESVTEQDSKDSTYSLSSTLTLSKADYEKHKVYACEVTHQGLSSPVTKSFNRGEC
light 2: EVQLLESGGGLVQPGGSLRLSCAASGFTFSSYAMNWVRQAPGKGLEWVSRIRSKYNNYATYYADSVKGRFTISRDDSKNTLYLQMNSLRAEDTAVYYCVRASNFPASYVSYFAYWGQGTLVTVSSASVAAPSVFIFPPSDEQLKSGTASVVCLLNNFYPREAKVQWKVDNALQSGNSQESVTEQDSKDSTYSLSSTLTLSKADYEKHKVYACEVTHQGLSSPVTKSFNRGEC
notes: also called PLAP H1 TCB; PLAP (H1) TCB
B2: PLAP H5 CD3 P035.093 TCB (bispecific antibody, human IgG1, kappa, L234A L235A)
heavy 1: not shown
heavy 2: B1 heavy 2 with F27G, L29V
light 1: B1 light 1
light 2: B1 light 2
notes: also called PLAP H5 TCB; PLAP (H5) TCB
B3: PLAP H3 CD3 P035.093 TCB (bispecific antibody, human IgG1, kappa, L234A L235A)
heavy 1: not shown
heavy 2: B1 heavy 2 with H60N, S61P, A62S, I64K
light 1: B1 light 1
light 2: B1 light 2
notes: 2+1 IgG CrossFab, inverted; also called PLAP H3 TCB; PLAP (H3) TCB

Legend:
[1] = molecular target: T1, human PLAP (ALPP) expressed on CHO-K1 cells (human, UniProt P05187 23-506); assay: cell-based or functional assay
T1 sequence (P05187 23-506): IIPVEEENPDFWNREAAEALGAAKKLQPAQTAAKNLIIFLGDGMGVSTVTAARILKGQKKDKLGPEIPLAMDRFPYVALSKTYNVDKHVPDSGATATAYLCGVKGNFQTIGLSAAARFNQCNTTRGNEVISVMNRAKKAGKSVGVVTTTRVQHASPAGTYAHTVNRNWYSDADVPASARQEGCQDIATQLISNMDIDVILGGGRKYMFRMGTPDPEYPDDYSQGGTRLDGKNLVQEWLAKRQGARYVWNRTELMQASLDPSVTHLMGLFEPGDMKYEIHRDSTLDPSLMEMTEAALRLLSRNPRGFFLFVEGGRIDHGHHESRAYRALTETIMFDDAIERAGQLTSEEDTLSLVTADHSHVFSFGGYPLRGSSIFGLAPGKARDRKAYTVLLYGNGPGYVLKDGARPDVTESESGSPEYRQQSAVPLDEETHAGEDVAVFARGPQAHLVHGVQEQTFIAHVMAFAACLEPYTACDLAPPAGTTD

[2] = molecular target: T2, cynomolgus PLAP (ALPP) expressed on CHO-K1 cells (cynomolgus, UniProt P05187 23-452 (human entry)); assay: cell-based or functional assay
T2 chain: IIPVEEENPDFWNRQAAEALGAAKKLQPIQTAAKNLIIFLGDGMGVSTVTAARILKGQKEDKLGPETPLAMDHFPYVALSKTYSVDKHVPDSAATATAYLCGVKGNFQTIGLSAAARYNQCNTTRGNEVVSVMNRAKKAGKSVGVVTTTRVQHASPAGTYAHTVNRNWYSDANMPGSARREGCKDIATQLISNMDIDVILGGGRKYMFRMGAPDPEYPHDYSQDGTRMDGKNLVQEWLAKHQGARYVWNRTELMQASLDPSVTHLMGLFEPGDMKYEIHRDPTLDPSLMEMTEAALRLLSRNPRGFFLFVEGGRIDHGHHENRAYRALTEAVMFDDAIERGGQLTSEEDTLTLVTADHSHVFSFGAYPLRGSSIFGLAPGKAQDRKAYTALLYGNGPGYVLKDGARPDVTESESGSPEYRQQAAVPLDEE

[3] = molecular target: T3, Human CD3ε stalk-Fc(knob)-Avi/CD3δ stalk-Fc(hole) (human); assay: SPR (Biacore T200, 25°C); TCB captured by anti-PG antibody on CM5 chip, 300 nM human CD3ε/δ injected; relative active concentration
T3 construct: Heterodimer of CD3 delta and CD3 epsilon ectodomains fused to a human Fc domain with knob-into-hole modifications and C-terminal Avi-tag; also called human CD3ε/δ; CD3ε/δ
Protocol: SPR experiments were performed on a Biacore T200 instrument (GE Healthcare) at 25° C. with HBS-P+(10 mM HEPES, 150 mM NaCl pH 7.4, 0.05% Surfactant P20) as running and dilution buffer. Anti-PG antibody (see Example 3) was immobilized by amine coupling (using amine coupling kit, Cytiva #BR100050) at a density of >6000 RU on a CM5 Chip (Sensor Chip CM5, Cytiva #29104988). The 10 nM solutions of TCB molecule samples in HBS-P+ were captured for 30 sec at a flow rate 10 μl/min. Then a 300 nM solution of human CD3ε/δ (see Example 3, SEQ ID NOs 24 and 25) was injected for 150 sec association time and 120 sec dissociation time at a flow rate of 10 μl/min. The regeneration of the surface followed by a 35 sec regeneration step with a 20 mM NaOH solution. The data were analyzed with the Biacore T200 Evaluation and Excel software. For the calculation of relative active concentration (RAC) the binding report point (BRP) was used (the BRP is a standard readout point in SPR, maximum response (unit/value) of interaction between antigen and antibody).

[4] = molecular target: T1, human PLAP (ALPP) expressed on CHO-K1 …; assay: cell-based or functional assay; remark: listed apart in the source
[5] = molecular target: human ALPG (ALPPL2) expressed on CHO-K1 cells (human, UniProt P10696 20-503); assay: cell-based or functional assay
[6] = molecular target: T3, Human CD3ε stalk-Fc(knob)-Avi/CD3δ …; assay: SPR single cycle kinetics (Biacore T200, 25°C); TCB captured by anti-PG antibody on CM3 chip, human CD3ε/δ as analyte
Protocol: (§1) The binding kinetics of the PLAP TCB molecules generated in Example 17 were characterized by the single cycle kinetic (SSK) assay. For this assay, again the SPR Biacore T200 was used. The immobilization was performed at 25° C. with HBS-N pH 7.4 as a running buffer (Cytiva #BR100670). The anti-PG antibody (see Example 3) was immobilized by amine coupling (using amine coupling kit, Cytiva #BR100050) at a density of >5000 RU on a CM3 Chip (Cytiva #29104990). The anti-PG antibody stock solution was diluted to a concentration of 25 μg/mL in a 10 mM sodium acetate buffer of pH 5.0 (Cytiva #BR100351). After the immobilization the analysis was performed at 25° C., and PBS-P+(Cytiva #28995084) was used as a running and a dilution buffer. The 3 nM solutions of TCB molecule samples in PBS-P+ were captured with anti-PG antibody on a CM3 sensor chip.
(§2) The derived kinetic rate constants and corresponding affinity values (equilibrium dissociation constant KD) are summarized in Table 26 for the CD3 binder and in Table 27 for the PLAP binder. The data were analyzed with the Biacore T200 Evaluation and Excel software.

[7] = molecular target: T4, Human PLAP (soluble, as injected in SPR) (human, UniProt P05187 23-506); assay: SPR single cycle kinetics (Biacore T200, 25°C); TCB captured by anti-PG antibody on CM3 chip, human PLAP as analyte
T4 construct: also called PLAP target
T4 sequence (P05187 23-506 limits assumed): as the sequence (P05187 23-506) above
Protocol: as §1, §2

[8] = molecular target: T3, Human CD3ε stalk-Fc(knob)-Avi/CD3δ …; assay: SPR RAC assay (Biacore T200, 25°C); TCB captured by anti-PG antibody on CM3 chip, 200 nM human CD3ε/δ injected after 100 nM human PLAP
Protocol: (§3) SPR experiments were performed on a Biacore T200 instrument (GE Healthcare). For the immobilization. HBS-N pH 7.4 was used as a running buffer (Cytiva #BR100670). Anti-PG antibody (see Example 3) was immobilized by amine coupling (using amine coupling kit, Cytiva #BR100050) at a density of >6000 RU on a CM3 Chip (Cytiva #29104990). The anti-PG antibody stock solution was diluted to a concentration of 25 μg/mL in a 10 mM sodium acetate buffer of pH 5.0 (Cytiva #BR100351). After the immobilization the analysis was performed at 25° C., and using PBS-P+ (Cytiva #28995084) as a running and a dilution buffer. The 5 nM solutions of TCB molecule samples in PBS-P+ were captured for 30 sec at a flow rate 5 μl/min. Then a 100 nM solution of human PLAP was injected for 90 sec association time and 30 sec dissociation time at a flow rate of 8 μl/min. Thereafter, a 200 nM solution of human CD3ε/δ (see Example 3, SEQ ID NOs 24 and 25) was injected for 90 sec association time and 30 sec dissociation time at a flow rate of 8 μl/min. The regeneration of the surface followed by two 60 sec regeneration steps with a 10 mM NaOH solution. The data were analyzed with the Biacore T200 Evaluation and Excel software. For the calculation of relative active concentration (RAC) the binding report point (BRP) was used. To calculate the RAC, the target and antibody concentrations were referenced to the unstressed sample (−80° C.) as 100% comparison. For the normalization of the protein concentration, reference was made to anti-PG antibody capturing (RAC values).

[9] = molecular target: T4, Human PLAP (soluble, as injected in SPR); assay: SPR RAC assay (Biacore T200, 25°C); TCB captured by anti-PG antibody on CM3 chip, 100 nM human PLAP injected
Protocol: as §3

Binder | EC50 (pM), Jurkat NFAT reporter assay to show cynomolgus cross-reactivity [1] | EC50 (pM), Jurkat NFAT reporter assay to show cynomolgus cross-reactivity [2] | RAC % of CD3 binding, stress A [3] | RAC % of CD3 binding, stress B [3] | RAC % of CD3 binding, unstressed [3] | EC50 (pM), Jurkat NFAT reporter assay (luminescence, 6 h) [4] | EC50 (pM), Jurkat NFAT reporter assay (luminescence, 6 h) [5] | Kd [6] | koff [6] | kon [6] | Kd [7] | koff [7] | kon [7] | RAC [%] CD3 binding, stress A [8] | RAC [%] CD3 binding, stress B [8] | RAC [%] CD3 binding, unstressed [8] | RAC [%] PLAP binding, stress A [9] | RAC [%] PLAP binding, stress B [9] | RAC [%] PLAP binding, unstressed [9]
B1 | 98 pM | 45 pM | 100% | 98% | 100% | 37 pM | 40 pM |  |  |  |  |  |  |  |  |  |  |  | 
B2 | 37 pM | 52 pM | 97% | 99% | 100% | 36 pM | 34 pM |  |  |  |  |  |  |  |  |  |  |  | 
B3 | 98 pM | 48 pM | 99% | 97% | 100% | 35 pM | 35 pM | 0.5 nM | 0.000933 s⁻¹ | 2.09e+06 M⁻¹ s⁻¹ | 0.0051 nM | 2.22e-05 s⁻¹ | 4.33e+06 M⁻¹ s⁻¹ | 99% | 98% | 100% | 100% | 100% | 100%
